Measured values reported in PMC1361615 (Nucleic Acids Research, 2006).

Target: the molecule itself
Assay: SEC

B1: His-tagged RsrI N6-adenine DNA methyltransferase (M.RsrI), wild type (enzyme, UniProt P14751 1-319, looked up)
chain: MANRSHHNAGHRAMNALRKSGQKHSSESQLGSSEIGTTRHVYDVCDCLDTLAKLPDDSVQLIICDPPYNIMLADWDDHMDYIGWAKRWLAEAERVLSPTGSIAIFGGLQYQGEAGSGDLISIISHMRQNSKMLLANLIIWNYPNGMSAQRFFANRHEEIAWFAKTKKYFFDLDAVREPYDEETKAAYMKDKRLNPESVEKGRNPTNVWRMSRLNGNSLERVGHPTQKPAAVIERLVRALSHPGSTVLDFFAGSGVTARVAIQEGRNSICTDAAPVFKEYYQKQLTFLQDDGLIDKARSYEIVEGAANFGAALQRGDVAS
B1 was tested, and the “stoichiometry N” value was 2.
